Target: truncated human ACE2 ectodomain (residues 19-613), AviTagged, biotinylated (human) (UniProt Q9BYF1)
Assay: BLI

SARS-CoV-2 RBD wild type (WHU1 isolate, amino acids 319-541) (from UniProt P0DTC2 319-541) (domain or fragment)
t½ (complex half-time): 1.4 min

SARS-CoV-2 RBD natural variant S477N (from UniProt P0DTC2 319-541) (domain or fragment)
t½ (complex half-time): 2.68 min

SARS-CoV-2 RBD natural variant N501Y (from UniProt P0DTC2 319-541) (domain or fragment)
t½ (complex half-time): 5.49 min

SARS-CoV-2 RBD natural variant N439K (from UniProt P0DTC2 319-541) (domain or fragment)
t½ (complex half-time): 1.85 min

SARS-CoV-2 RBD natural variant Q493L (from UniProt P0DTC2 319-541) (domain or fragment)
t½ (complex half-time): 3.52 min

From doi:10.1101/2021.03.20.21254037
